{"source": "paper PMC7502524", "molecular_target": "PM20D1-flag (epitope-tagged, AAV serotype 8) (mouse) (UniProt Q8C165)", "sequence (Q8C165 25-503)": "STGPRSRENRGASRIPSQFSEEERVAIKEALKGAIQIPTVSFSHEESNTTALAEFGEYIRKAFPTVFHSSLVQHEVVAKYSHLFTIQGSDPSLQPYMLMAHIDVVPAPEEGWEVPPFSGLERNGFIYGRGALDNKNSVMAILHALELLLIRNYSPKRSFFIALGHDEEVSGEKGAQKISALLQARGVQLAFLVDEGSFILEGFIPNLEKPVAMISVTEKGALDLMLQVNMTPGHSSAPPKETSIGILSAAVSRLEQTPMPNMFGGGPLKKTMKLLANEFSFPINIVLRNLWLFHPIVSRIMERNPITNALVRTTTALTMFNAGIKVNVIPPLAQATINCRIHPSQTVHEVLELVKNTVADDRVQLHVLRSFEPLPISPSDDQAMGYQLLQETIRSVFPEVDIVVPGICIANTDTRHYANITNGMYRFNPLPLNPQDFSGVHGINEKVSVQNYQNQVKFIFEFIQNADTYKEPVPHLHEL", "assay": "SEC"}
{"substance": "APOB (APOB-containing low-density lipoproteins of mouse plasma) (natural protein)", "values": [{"measurement": "percent of total anti-flag band intensity in APOB+ fractions", "value": 91, "unit": "%"}]}
